Data as given in patent US10934559B2, “Hypersensitive ABA receptors” (The Regents of the University of California, priority 2014, dated 2021).
Read-outs that look alike come from different tables or passages of the source.

Assays:
HAB1 = experiment: PYR1 mutant-HAB1 yeast two-hybrid assay under different ABA concentrations (X-gal staining); format: cell-based; settings: lowest (+)-ABA concentration giving detectable X-gal staining; S. cerevisiae Y190 with pACT-HAB1; 30° C., 48 hours
Text: The affinity of a receptor for a target ligand is typically determined by non-covalent interactions between ligand-binding residues and the ligand. Mutations in such residues can have negative, positive or neutral effects on the strength of the receptor—ligand interaction. The affinity of a receptor-ligand interaction is intrinsically correlated with the concentration of ligand required to elicit biological effects, with high affinity ligands requiring lower concentrations relative to low affinity ligands. A mutant receptor with increased affinity for a ligand can in some cases elicit greater biological effect relative to a wild type receptor, when both are activated under identical conditions by the same concentration of activating ligand. Thus, mutations that make a receptor hypersensitive to a ligand can be useful for engineering organisms that elicit stronger responses to the ligand relative to wild type. […] Based on these considerations, we set out to systematically establish specific ABA receptor mutations that increase ABA responsiveness. This was done by testing a collection of PYR1 variants with all possible single amino acid substitution mutations in ligand binding residues. Thus we conducted site-saturated mutagenesis of ABA-contacting residues, which we define as those that are within 5A or ABA or ABA-contacting water residues in available X-ray coordinates. This collection of mutants was constructed previously, as described in PCT Application No. PCT/US2012/043121 and Mosquna et al., Proc Natl Acad Sci USA 108: 20838-20843 (2011). This collection of mutants was made by mutagenizing a previously described pBD GAL-PYR1 template (Park, S.-Y., et al. Science 324, 1068-1071 ([…])). In response to ABA, this particular plasmid encodes a fusion protein that binds to a co-expressed GAL4 activation domain-HAB1 fusion protein, encoded by the plasmid pACT-HAB1. This binding reconstitutes a functional GAL4 transcriptional activator and subsequent transcription of a β-galactosidase reporter gene, which in turn enables colorimetric based detection of agonist promoted receptor-PP2C interaction when lysed cells are exposed to the substrate X-gal. The mutant clones were individually transformed into S. cerevisiae strain Y190 containing pACT-HAB1. Yeast transformants were selected for the presence of plasmids on synthetic dextrose (SD) agar plates lacking Leu and Trp (SD-LT) and examined for PP2C interactions by using X-gal staining to monitor β-gal reporter gene expression levels. Individual clones were arrayed into 96 well plates and then spotted onto SD-LT lawn (i.e. one-well) plates containing 0, 0.5 or 5.0 μM (+)-ABA. Each assay plate contained 95 mutant clones and one wild type PYR1 positive control clone. The spotted cells were cultured at 30° C. for 48 hours after which they were lysed by chloroform and stained with an X-gal solution, as previously described (Park, S.-Y., et al. (2009) Science 324, 1068-1071). […] After this initial screening exercise, all positives clones were retested on plates containing […] and stained for galactosidase activity as described above. Mutant clones showing detectable staining on 0.5 μM (+)-ABA or lower were scored as hypersensitive mutants. FIG. 1 depicts results of PYR1 mutant-HAB1 interactions as assayed in a yeast two-hybrid assay under different ABA concentrations, with darker spots indicating increased interaction.

[1] = previously measured, Dupeux et al. 2010; read-out: affinity of wild type PYR1 (Kd) measured using ITC; cited from earlier work
[2] = isothermal titration calorimetry (ITC) of receptor-ABA binding; settings: 600 μM (+)-ABA injected into 60 μM receptor; PBS, 1 mM 2-mercaptoethanol, 0.012% DMSO; single binding site model
Text: The ligand sensitivity of PYR1 and HAB1 yeast two hybrid strains generally correlates with receptor affinity. To examine if this was the case for the hypersensitive mutations identified by our functional screens, we conducted isothermal titration calorimetry (ITC) to measure the heat produced by a mutant receptor-ABA binding reaction and infer the ligand binding dissociation constant (Kd). […] The PYR1-A160V mutant receptor was expressed in E. coli BL21(DE3) as a fusion to the small ubiquitin like protein SUMO, using the vector pSUMO (LifeSensors, USA), which improves the solubility of proteins in E. coli and contains an NH2-terminal hexa-histidine tag that facilitates purification using immobilized metal affinity chromatography (IMAC). PYR1 A160V was cloned into pSUMO by using PCR product generated from a pBD-PYR1(A160V) yeast two hybrid construct as template, and sequence validated. A short flexible linker and tobacco etch virus (TEV) protease cleavage site (sequence NH2-[…]-COOH; SEQ ID NO:411) was incorporated in between the SUMO tag and the receptor to enable cleavage of the recombinant protein by TEV protease, which yields PYR1(A160V) plus an NH2-terminal QS appendage. […]

Molecule	Minimal conc. For ABA response (HAB1) [µM]	Kd [1] [µM]	Kd [2] [µM]
WT: Arabidopsis wildtype PYR1 ABA receptor, SEQ ID NO:1 [reference compound]	1	97 ± 36	
A160V: PYR1 mutant A160V, SEQ ID NO:141; for ITC the cleaved recombinant protein with NH2-terminal QS appendage (protein, N-terminal QS appendage for ITC; synthetic Arabidopsis PYR1 mutant A160V) MPSELTPEERSELKNSIAEFHTYQLDPGSCSSLHAQRIHAPPELVWSIVRRFDKPQTYKHFIKSCSVEQNFEMRVGCTRDVIVISGLPANTSTERLDILDDERRVTGFSIIGGEHRLTNYKSVTTVHRFEKENRIWTVVLESYVVDMPEGNSEDDTRMFVDTVVKLNLQKLATVAEAMARNSGDGSGSQVT	0.25		1.5
V81Y: PYR1 mutant V81Y, SEQ ID NO:127 (protein, synthetic Arabidopsis PYR1 mutant V81Y) MPSELTPEERSELKNSIAEFHTYQLDPGSCSSLHAQRIHAPPELVWSIVRRFDKPQTYKHFIKSCSVEQNFEMRVGCTRDYIVISGLPANTSTERLDILDDERRVTGFSIIGGEHRLTNYKSVTTVHRFEKENRIWTVVLESYVVDMPEGNSEDDTRMFADTVVKLNLQKLATVAEAMARNSGDGSGSQVT	0.25		
I110C: PYR1 mutant I110C, SEQ ID NO:128 (protein, synthetic Arabidopsis PYR1 mutant I110C) MPSELTPEERSELKNSIAEFHTYQLDPGSCSSLHAQRIHAPPELVWSIVRRFDKPQTYKHFIKSCSVEQNFEMRVGCTRDVIVISGLPANTSTERLDILDDERRVTGFSCIGGEHRLTNYKSVTTVHRFEKENRIWTVVLESYVVDMPEGNSEDDTRMFADTVVKLNLQKLATVAEAMARNSGDGSGSQVT	0.25		
